± gives the uncertainty stated by the source.
Experiment: self-splicing fitness, log relative to wild type (ln ratio); higher = more splicing; Tetrahymena group I intron in knt gene, E. coli kanamycin selection, DiMSum; sequences stand for … in CUCUCU…GGAGGGAAAAGUUAUCAGGCAUGCACCUGGUAGCUAGUCUUUAAACCAAUAGAUUGCAUCGGUUUAAAAGGCAAGACCGUCAAAUUGCGGGAAAGGGGUCAACAGCCGUUCAGUACCAAGUCUCAGGGGAAACUUUGAGAUGGCCUUGCAAAGGGUAUGGUAAUAAGCUGACGGACAUGGUCCUAACCACGCAGCCAAGUCCUAAGUCAACAGAUCUUCUGUUGAUAUGGAUGCAGUUCACAGACUAAAUGUCGGUCGGGGAAGAUGUAUUCUUCUCAUAAGAUAUAGUCGGACCUCUCCUUAAUGGGAGCUAGCGGAUGAAGUGAUGCAACACUGGAGCCGCUGGGAACUAAUUUGUAUGCGAAAGUAUAUUGAUUAGUUUUGGAGUACUCGUGGUCG
Method in brief: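 The eight P1ex-region nucleotides of an intron in the knt kanamycin-resistance gene on pET-22b(+) were all randomised and the library put into E. coli BL21(DE3). Six replicate transformations were grown overnight at 37°C or 30°C on LB agar with or without 25 μg/mL kanamycin, together with 100 μg/mL carbenicillin, 50 μM IPTG and 0.2% rhamnose. Colonies were pooled and amplicon-sequenced on an Illumina HiSeq 2500. Fitness from DiMSum is the error-weighted combination of wild-type-normalised replicate fold changes, kanamycin over none.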

Sequence	self-splicing fitness (ln) (30 °C)	self-splicing fitness (ln) (37 °C)
CUUAAGCAAUAUUACGUUCA	-2.9 ± 0.27	-3.79 ± 0.47
CUUAAGCAAUAUUACGUUGC	–	-2.03 ± 0.35
CUUAAGCAAUAUUACGUUUG	-3.89 ± 0.2	-2.73 ± 0.3
CUUAAGCAAUAUUACGUUUU	-4.2 ± 0.25	-2.07 ± 0.21
CUUCAGCAAUAUUACGAACU	-3.9 ± 0.37	-1.75 ± 0.27
CUUCAGCAAUAUUACGACGU	-3.67 ± 0.21	-2.12 ± 0.21
CUUCAGCAAUAUUACGACUA	-2.12 ± 0.39	–
CUUCAGCAAUAUUACGAUGA	-4.12 ± 0.42	-1.71 ± 0.25
CUUCAGCAAUAUUACGCAGA	-3.44 ± 0.37	-2.18 ± 0.22
CUUCAGCAAUAUUACGCAGG	-4.17 ± 0.34	-2.07 ± 0.26
CUUCAGCAAUAUUACGCGCG	-0.941 ± 0.056	-0.367 ± 0.087
CUUCAGCAAUAUUACGGCCU	–	-1.66 ± 0.38
CUUCAGCAAUAUUACGGGAU	-2.14 ± 0.084	-1.34 ± 0.095
CUUCAGCAAUAUUACGGUCU	-2.93 ± 0.15	-2.21 ± 0.2
CUUCAGCAAUAUUACGGUGA	-3.2 ± 0.21	-2.67 ± 0.18
CUUCAGCAAUAUUACGUAAA	-3.05 ± 0.15	-2.12 ± 0.19
CUUCAGCAAUAUUACGUAAC	-2.65 ± 0.32	-2.27 ± 0.45
CUUCAGCAAUAUUACGUCCA	-2.19 ± 0.29	-2.63 ± 0.36
CUUCAGCAAUAUUACGUGAA	-2.71 ± 0.12	-2.72 ± 0.2
CUUCAGCAAUAUUACGUGGC	-2.61 ± 0.23	-2.08 ± 0.43
CUUCAGCAAUAUUACGUGUC	-3.03 ± 0.13	-2.3 ± 0.12
CUUCAGCAAUAUUACGUUGG	-3.67 ± 0.23	-4.08 ± 0.46
CUUGAGCAAUAUUACGAACC	–	-1.54 ± 0.44
CUUGAGCAAUAUUACGAAUA	-3.26 ± 0.48	–
CUUGAGCAAUAUUACGAGCU	-1.6 ± 0.46	–

Sequence	self-splicing fitness (ln) (30 °C)	self-splicing fitness (ln) (37 °C)
CUUGAGCAAUAUUACGAGGU	-2.39 ± 0.19	-2.42 ± 0.22
CUUGAGCAAUAUUACGAUCA	–	-2.89 ± 0.48
CUUGAGCAAUAUUACGAUGG	-2.94 ± 0.2	-2.13 ± 0.23
CUUGAGCAAUAUUACGCGGG	-3.92 ± 0.3	-0.302 ± 0.18
CUUGAGCAAUAUUACGCGUG	-2.84 ± 0.18	-0.143 ± 0.11
CUUGAGCAAUAUUACGCUCG	-1.7 ± 0.17	-2.65 ± 0.44
CUUGAGCAAUAUUACGCUGU	-2.28 ± 0.19	-2.06 ± 0.32
CUUGAGCAAUAUUACGGAGU	-1.09 ± 0.13	-1.97 ± 0.28
CUUGAGCAAUAUUACGGAUC	–	-1.45 ± 0.31
CUUGAGCAAUAUUACGGGCC	–	-2.81 ± 0.34
CUUGAGCAAUAUUACGGUGC	-3.34 ± 0.35	-2.19 ± 0.42
CUUGAGCAAUAUUACGGUUA	-2.25 ± 0.15	-3.21 ± 0.3
CUUGAGCAAUAUUACGUAAC	-1.67 ± 0.38	–
CUUGAGCAAUAUUACGUGAG	-2.89 ± 0.12	-1.28 ± 0.12
CUUGAGCAAUAUUACGUGCU	-1.93 ± 0.11	-3.89 ± 0.42
CUUGAGCAAUAUUACGUUAU	-3.45 ± 0.27	-2.77 ± 0.36
CUUGAGCAAUAUUACGUUGU	-3.73 ± 0.14	-2.94 ± 0.14
CUUUAGCAAUAUUACGAAAC	–	-1.65 ± 0.32
CUUUAGCAAUAUUACGAGCG	-1.16 ± 0.073	0.0581 ± 0.12
CUUUAGCAAUAUUACGAGGG	-3.57 ± 0.21	-2.26 ± 0.27
CUUUAGCAAUAUUACGAGUG	-0.24 ± 0.06	-0.267 ± 0.077
CUUUAGCAAUAUUACGCACC	-2.92 ± 0.43	–
CUUUAGCAAUAUUACGCAGU	-1.8 ± 0.3	-2.34 ± 0.49
CUUUAGCAAUAUUACGCUAU	-3.66 ± 0.31	-1.68 ± 0.23
CUUUAGCAAUAUUACGGAGU	–	-2.46 ± 0.48

Sequence	self-splicing fitness (ln) (30 °C)	self-splicing fitness (ln) (37 °C)
CUUUAGCAAUAUUACGGGCA	-3.41 ± 0.26	-2.67 ± 0.21
CUUUAGCAAUAUUACGGGUG	-0.377 ± 0.072	0.108 ± 0.091
CUUUAGCAAUAUUACGGUCG	-0.496 ± 0.055	-0.259 ± 0.083
CUUUAGCAAUAUUACGUAAU	-2.49 ± 0.16	-2.78 ± 0.33
CUUUAGCAAUAUUACGUAGA	-2.52 ± 0.22	-2.53 ± 0.33
CUUUAGCAAUAUUACGUCAC	–	-0.481 ± 0.4
CUUUAGCAAUAUUACGUCCG	-0.0797 ± 0.084	-0.326 ± 0.099
CUUUAGCAAUAUUACGUCCU	–	-1.9 ± 0.31
CUUUAGCAAUAUUACGUCGU	-2.27 ± 0.36	-3.05 ± 0.37
CUUUAGCAAUAUUACGUCUG	-0.534 ± 0.094	-0.218 ± 0.12
CUUUAGCAAUAUUACGUGUC	-2.98 ± 0.21	-1.55 ± 0.17
CUUUAGCAAUAUUACGUUAC	-3.92 ± 0.34	-1.74 ± 0.29
CUUUAGCAAUAUUACGUUGU	-3.88 ± 0.17	-3.45 ± 0.21
CUUUAGCAAUAUUACGUUUA	-3.03 ± 0.24	-1.64 ± 0.17
GAAAAGCAAUAUUACGAAAG	-3.5 ± 0.15	-1.9 ± 0.14
GAAAAGCAAUAUUACGAAUU	-1.37 ± 0.11	-0.667 ± 0.12
GAAAAGCAAUAUUACGACUC	0.143 ± 0.2	-0.00506 ± 0.28
GAAAAGCAAUAUUACGAGCU	-0.618 ± 0.069	-0.352 ± 0.091
GAAAAGCAAUAUUACGCACA	-0.807 ± 0.093	-0.0907 ± 0.14
GAAAAGCAAUAUUACGCCGC	-2.23 ± 0.25	–
GAAAAGCAAUAUUACGCGAU	-2.88 ± 0.28	-2.32 ± 0.33
GAAAAGCAAUAUUACGCGCC	-2.06 ± 0.16	-1.25 ± 0.17
GAAAAGCAAUAUUACGCGGA	-2.25 ± 0.14	-0.603 ± 0.13
GAAAAGCAAUAUUACGCUUC	-3.71 ± 0.12	-2.77 ± 0.14
GAAAAGCAAUAUUACGGACU	0.147 ± 0.069	0.272 ± 0.087

Sequence	self-splicing fitness (ln) (30 °C)	self-splicing fitness (ln) (37 °C)
GAAAAGCAAUAUUACGGAUA	-1.32 ± 0.13	-1.18 ± 0.12
GAAAAGCAAUAUUACGGCUU	-0.227 ± 0.082	0.0447 ± 0.096
GAAAAGCAAUAUUACGGGAC	-1.06 ± 0.12	-2.06 ± 0.18
GAAAAGCAAUAUUACGGGAU	-2.18 ± 0.14	-1.26 ± 0.12
GAAAAGCAAUAUUACGGGCC	-1.09 ± 0.14	-1.37 ± 0.17
GAAAAGCAAUAUUACGGGGG	-3.11 ± 0.21	-1.15 ± 0.17
GAAAAGCAAUAUUACGGGGU	-3.91 ± 0.26	-2.32 ± 0.23
GAAAAGCAAUAUUACGGGUG	-2.23 ± 0.079	-1.18 ± 0.1
GAAAAGCAAUAUUACGUAGC	-2.66 ± 0.15	-1.51 ± 0.15
GAAAAGCAAUAUUACGUAUG	-1.6 ± 0.079	-1.74 ± 0.12
GAAAAGCAAUAUUACGUCCA	-0.703 ± 0.064	0.0901 ± 0.089
GAAAAGCAAUAUUACGUCCC	-0.229 ± 0.17	0.0916 ± 0.2
GAAAAGCAAUAUUACGUGAC	-4.06 ± 0.34	-1.17 ± 0.17
GAAAAGCAAUAUUACGUUAG	-2.27 ± 0.12	-1.85 ± 0.14
GAACAGCAAUAUUACGAUAU	-1.36 ± 0.061	-0.525 ± 0.074
GAACAGCAAUAUUACGAUCA	-0.605 ± 0.089	-0.214 ± 0.11
GAACAGCAAUAUUACGAUUA	-0.501 ± 0.11	-0.296 ± 0.098
GAACAGCAAUAUUACGCACG	-1.38 ± 0.18	0.123 ± 0.13
GAACAGCAAUAUUACGCACU	0.254 ± 0.079	0.0329 ± 0.11
GAACAGCAAUAUUACGCCCA	0.617 ± 0.17	-0.316 ± 0.24
GAACAGCAAUAUUACGCCGC	–	-2.35 ± 0.34
GAACAGCAAUAUUACGCCUC	-1.81 ± 0.17	-1.89 ± 0.26
GAACAGCAAUAUUACGCGUU	-3.27 ± 0.12	-2.69 ± 0.14
GAACAGCAAUAUUACGCUCG	-0.797 ± 0.1	-0.128 ± 0.15
GAACAGCAAUAUUACGGACA	-1.3 ± 0.1	-0.732 ± 0.09

From the supplement of paper PMC7877785
